Laboratory results as given in patent US20230279130A1 (QILU PUGET SOUND BIOTHERAPEUTICS, published 2023).

Assays:
[1] = biological target: T1, full length human CCR8 (hCCR8) (human, UniProt P51685 1-355); experiment: cell-based or functional assay
[2] = biological target: T2, recombinant hCCR8 N-terminus fused at the N-terminal of Fc region of human IgG1 (human); experiment: SPR (Biacore 3000), Fab flowed over captured CCR8-fc; column head printed 'K0' (KD)
T2 construct: also called recombinant huCCR8-N terminus antigen; huCCR8 N-terminus protein; not shown: Fc region of human IgG1
Method: (§1) FIGS. 1A-1D: Binding of anti-CCR8 Fabs to recombinant huCCR8-N terminus antigen (Seq No.1). Binding affinity of anti-CCR8 Fabs for huCCR8 N-terminus protein was determined by Biacore analysis. Digested anti-CCR8 Fab fragments were flowed over captured antigen.
(§2) The affinity of the candidate antibodies for human CCR8 was assessed using SPR on a Biacore 3000 instrument. Anti-CCR8 Fab fragments were flowed over the cells in the chip with multiple blank (running buffer) injections also run to subtract system artifacts. The data were aligned, double referenced, and fit using SCRUBBER 2™ software (BioLogic Software, Pty, Australia). […] The binding of anti-CCR8 antibodies to CCR8 was then examined in HEK293 cells or P815 cells transfected with full-length hCCR8.

[3] = biological target: T2, recombinant hCCR8 N-terminus fused at …; experiment: SPR, Biacore 3000; Fab flowed over captured hCCR8 N-terminus-Fc
Method: as §1, §2

[4] = biological target: T1, full length human CCR8 (hCCR8); experiment: cell-based or functional assay; remark: listed apart in the source

T2 sequence (chain, as listed by the source): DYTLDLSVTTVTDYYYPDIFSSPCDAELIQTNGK

| average IC50 of inhibition of CCL1-mediated chemotaxis of hCCR8 P815 cells [1] [nM] | Kd [2] [nM] | Binder | further results |
| --- | --- | --- | --- |
| 1.09 | 0.876 | engineered anti CCR8 Fab 1047 (Fab, V domains shown, Fab made by digesting the antibody; also called Fab fragment of 1047) VH: EVQLVESGGGVVQPGRSLRLSCAASGFPFEPFAMNWVRQAPGKGLEWVARIRSKANNYATYYADSVKDRFAISRDNSKSTLYLLMHSLRFEDTAVYYCVRGRENNYGYAMDYWGQGTTVTVSS VL: DVVMTQSPPSLPVTLGQSASISCRSSQSLLHSNGITYLYWFLQRPGQSPRLLIYRMSNLASGVPDRFSGSGSGTDFTLRISRVEAEDVGVYYCMQHLTYPFTFGIGTKVEIK | – |
| 0.414 | – | Fab fragment of anti-CCR8 antibody 1434 (Fab, V domains shown) VH: EVQLVESGGGLVQPGGSLRLSCAASGFPFEPFAMNWVRQAPGKGLEWVGRIRSKANNYATYYADSVKDRFTISRDDSKRSLYLLMNSLKFEDTAVYYCVRGRENNYGYAMDYWGQGTTVTVSS VL: DVVMTQSPLSLPVTLGQPASISCRSSQSLLHSNGITYLYWFQQRPGQSPRRLIYRMSNLASGVPDRFSGSGSGTDFTLKISRVEAEDVGVYYCMQHLTYPFTFGIGTKVEIK | – |
| 0.254 | – | Fab fragment of anti-CCR8 antibody 1187 (Fab, V domains shown, also called Fab 51) VH: EVQLVESGGGVVQPGRSLRLSCAASGFPFEPFAMNWVRQAPGKGLEWVARIRSKANNYATYYADSVKDRFAISRDNSKRTLYLLMHSLRFEDTAVYYCVRGRENNYGYAMDYWGQGTTVTVSS VL: DVVMTQSPPSLPVTLGQSASISCRSSQSLLHSNGITYLYWFLQRPGQSPRLLIYRMSNLASGVPDRFSGSGSGTDFTLRISRVEAEDVGVYYCMQHLTYPFTFGIGTKVEIK | IC50 of inhibition of CCL1-mediated chemotaxis of hCCR8 P815 cells [1]: ~0.035 µg/mL; Kd [3]: 0.647 nM; fold improvement of binding affinity against the original anti-CCR8 antibody candidate [3]: 2.5 fold |
| – | – | anti-CCR8 antibody 1187 (antibody, V domains shown) VH: EVQLVESGGGVVQPGRSLRLSCAASGFPFEPFAMNWVRQAPGKGLEWVARIRSKANNYATYYADSVKDRFAISRDNSKRTLYLLMHSLRFEDTAVYYCVRGRENNYGYAMDYWGQGTTVTVSS VL: DVVMTQSPPSLPVTLGQSASISCRSSQSLLHSNGITYLYWFLQRPGQSPRLLIYRMSNLASGVPDRFSGSGSGTDFTLRISRVEAEDVGVYYCMQHLTYPFTFGIGTKVEIK | IC50, inhibition of chemotaxis of hCCR8-transfected P815 cells to 1 nM CCL1 (intact IgG1, Cell Titer Glo) [4]: 0.00403 µg/mL |
| 0.15 | 0.385 | engineered anti-CCR8 Fab 953 (Fab, V domains shown, Fab made by digesting the antibody) VH: EVQLVESGGGVVQPGRSLRLSCAASGFPFEPFAMNWVRQAPGKGLEWVARIRSKANNYATYYADSVKDRFAISRDNSKSTLYLLMHSLRFEDTAVYYCVRGRENRYGYAMDYWGQGTTVTVSS VL: DVVMTQSPPSLPVTLGQSASISCRSSQSLLHSNGITYLYWFLQRPGQSPRLLIYRMSNLASGVPDRFSGSGSGTDFTLRISRVEAEDVGVYYCMQHLTYPFTFGIGTKVEIK | – |
